Measurements: IntAct's records for PubMed 9537418

B1: Merlin (Homo sapiens), P35240-3 (parent)
chain: MAGAIASRMSFSSLKRKQPKTFTVRIVTMDAEMEFNCEMKWKGKDLFDLVCRTLGLRETWFFGLQYTIKDTVAWLKMDKKVLDHDVSKEEPVTFHFLAKFYPENAEEELVQEITQHLFFLQVKKQILDEKIYCPPEASVLLASYAVQAKYGDYDPSVHKRGFLAQEELLPKRVINLYQMTPEMWEERITAWYAEHRGRARDEAEMEYLKIAQDLEMYGVNYFAIRNKKGTELLLGVDALGLHIYDPENRLTPKISFPWNEIRNISYSDKEFTIKPLDKKIDVFKFNSSKLRVNKLILQLCIGNHDLFMRRRKADSLEVQQMKAQAREEKARKQMERQRLAREKQMREEAERTRDELERRLLQMKEEATMANEALMRSEETADLLAEKAQITEEEAKLLAQKAAEAEQEMQRIKATAIRTEEEKRLMEQKVLEAEVLALKMAEESERRAKEADQLKQDLQEAREAERRAKQKLLEIATKPTYPPMNPIPAPLPPDIPSFNLIGDSLSFDFKDTDMKRLSMEIEKEKVEYMEKSKHLQEQLNELKTEIEALKLKERETALDILHNENSDRGGSSKHNTIKKPQAQGRRPICI

Variants of: B1
Conditions: with sptb2_human SPTBN1, Q01082
Chain of sptb2_human SPTBN1, Q01082 (Q01082 whole entry): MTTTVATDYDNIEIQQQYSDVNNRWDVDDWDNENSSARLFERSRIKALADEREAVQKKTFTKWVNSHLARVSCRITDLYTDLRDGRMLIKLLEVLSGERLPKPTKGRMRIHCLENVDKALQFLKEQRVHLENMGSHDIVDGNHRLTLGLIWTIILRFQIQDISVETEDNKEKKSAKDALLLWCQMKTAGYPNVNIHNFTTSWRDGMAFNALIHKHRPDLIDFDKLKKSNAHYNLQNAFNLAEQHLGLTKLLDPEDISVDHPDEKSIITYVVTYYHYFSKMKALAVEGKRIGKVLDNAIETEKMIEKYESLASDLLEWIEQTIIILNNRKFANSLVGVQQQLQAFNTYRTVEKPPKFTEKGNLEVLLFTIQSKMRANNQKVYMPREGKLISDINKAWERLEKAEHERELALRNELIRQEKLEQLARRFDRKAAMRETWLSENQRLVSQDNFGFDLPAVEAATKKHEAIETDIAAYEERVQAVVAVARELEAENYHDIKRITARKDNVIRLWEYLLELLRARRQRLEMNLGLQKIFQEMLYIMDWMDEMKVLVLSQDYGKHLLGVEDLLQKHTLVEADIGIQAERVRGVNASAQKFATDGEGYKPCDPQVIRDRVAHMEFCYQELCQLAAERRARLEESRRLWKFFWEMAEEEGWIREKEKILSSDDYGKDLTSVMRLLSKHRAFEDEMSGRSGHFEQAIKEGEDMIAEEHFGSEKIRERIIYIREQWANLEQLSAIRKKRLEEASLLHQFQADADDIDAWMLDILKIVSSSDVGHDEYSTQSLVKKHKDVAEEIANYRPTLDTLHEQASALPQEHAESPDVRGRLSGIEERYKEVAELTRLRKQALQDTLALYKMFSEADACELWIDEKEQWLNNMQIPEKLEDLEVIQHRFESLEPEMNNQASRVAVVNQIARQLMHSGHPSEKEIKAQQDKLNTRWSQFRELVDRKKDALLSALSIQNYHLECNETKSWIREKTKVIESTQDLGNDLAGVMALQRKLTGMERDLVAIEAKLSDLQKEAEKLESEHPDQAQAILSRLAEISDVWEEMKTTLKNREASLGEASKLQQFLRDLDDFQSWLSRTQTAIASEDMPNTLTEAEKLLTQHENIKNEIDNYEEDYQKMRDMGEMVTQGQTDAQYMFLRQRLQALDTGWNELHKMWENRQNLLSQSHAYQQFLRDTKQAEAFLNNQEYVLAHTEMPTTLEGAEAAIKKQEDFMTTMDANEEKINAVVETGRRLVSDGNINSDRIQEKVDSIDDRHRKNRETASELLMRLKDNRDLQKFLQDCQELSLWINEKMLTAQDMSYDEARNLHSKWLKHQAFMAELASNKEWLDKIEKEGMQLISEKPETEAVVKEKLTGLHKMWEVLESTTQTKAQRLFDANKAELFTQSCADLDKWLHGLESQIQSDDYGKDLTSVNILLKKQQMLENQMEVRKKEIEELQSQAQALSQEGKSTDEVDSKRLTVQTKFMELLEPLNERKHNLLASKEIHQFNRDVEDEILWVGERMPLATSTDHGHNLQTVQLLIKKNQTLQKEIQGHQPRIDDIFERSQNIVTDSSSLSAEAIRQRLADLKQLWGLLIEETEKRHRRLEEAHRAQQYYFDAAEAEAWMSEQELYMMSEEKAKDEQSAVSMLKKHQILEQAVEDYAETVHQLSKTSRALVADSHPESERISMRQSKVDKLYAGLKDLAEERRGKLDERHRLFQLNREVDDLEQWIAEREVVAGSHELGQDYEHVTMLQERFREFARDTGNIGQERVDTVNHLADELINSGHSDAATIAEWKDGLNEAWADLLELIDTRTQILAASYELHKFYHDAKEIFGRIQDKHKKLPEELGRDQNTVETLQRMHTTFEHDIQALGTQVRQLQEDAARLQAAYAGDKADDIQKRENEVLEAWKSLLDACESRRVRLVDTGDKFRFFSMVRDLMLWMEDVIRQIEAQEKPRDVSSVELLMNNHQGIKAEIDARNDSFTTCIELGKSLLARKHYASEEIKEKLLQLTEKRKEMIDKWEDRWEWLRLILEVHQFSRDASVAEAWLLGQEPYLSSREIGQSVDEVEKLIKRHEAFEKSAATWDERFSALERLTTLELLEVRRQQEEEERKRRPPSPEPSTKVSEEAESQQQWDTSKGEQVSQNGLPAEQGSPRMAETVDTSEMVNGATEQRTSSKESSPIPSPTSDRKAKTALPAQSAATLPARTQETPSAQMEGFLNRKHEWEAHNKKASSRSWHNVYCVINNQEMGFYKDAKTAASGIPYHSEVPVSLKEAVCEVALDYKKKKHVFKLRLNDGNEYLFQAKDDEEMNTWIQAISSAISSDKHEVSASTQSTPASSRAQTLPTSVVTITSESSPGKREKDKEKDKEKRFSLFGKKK

Row | Variant | effect of a mutation on the interaction
1 | MAGAIASRMSFSSLKRKQPKTFTVRIVTMDAEMEFNCEMKWKGKDLFDLVCRTLGLRETWFFGLQYTIKDTVAWLKMDKKVLDHDVSKEEPVTFHFLAKFYPENAEEELVQEITQHLFFLQVKKQILDEKIYCPPEASVLLASYAVQAKYGDYDPSVHKRGFLAQEELLPKRVINLYQMTPEMWEERITAWYAEHRGRARDEAEMEYLKIAQDLEMYGVNYFAIRNKKGTELLLGVDALGLHIYDPENRLTPKISFPWNEIRNISYSDKEFTIKPLDKKIDVFKFNSSKLRVNKLILQLCIGNHDLFMRRRKADSLEVQQMKAQAREEKARKQMERQRLAREKQMREEAERTRDELERRPLQMKEEATMANEALMRSEETADLLAEKAQITEEEAKLLAQKAAEAEQEMQRIKATAIRTEEEKRLMEQKVLEAEVLALKMAEESERRAKEADQLKQDLQEAREAERRAKQKLLEIATKPTYPPMNPIPAPLPPDIPSFNLIGDSLSFDFKDTDMKRLSMEIEKEKVEYMEKSKHLQEQLNELKTEIEALKLKERETALDILHNENSDRGGSSKHNTIKKPQAQGRRPICI [L360P] | decreasing interaction strength
2 | MAGAIASRMSFSSLKRKQPKTFTVRIVTMDAEMEFNCEMKWKGKDLFDLVCRTLGLRETWFFGLQYTIKDTVAWLKMDKKVLDHDVSKEEPVTFHFLAKFYPENAEEELVQEITQHLFFLQVKKQILDEKIYCPPEASVLLASYAVQAKYGDYDPSVHKRGFLAQEELLPKRVINLYQMTPEMWEERITAWYAEHRGRARDEAEMEYLKIAQDLEMYGVNYFAIRNKKGTELLLGVDALGLHIYDPENRLTPKISFPWNEIRNISYSDKEFTIKPLDKKIDVFKFNSSKLRVNKLILQLCIGNHDLFMRRRKADSLEVQQMKAQAREEKARKQMERQRLAREKQMREEAERTRDELERRLLQMKEEATMANEALMRSEETADLLAEKAQITEEEAKLLAQKAAEAEQEMQRIKATAIRTEEEKRLMEQKVLEAEVLALKMAEESERRAKEADQLKQDLQEAREAERRAKQKLLEIATKPTYPPMNPIPAPLPPDIPSFNLIGDSLSFDFKDTDMKRLSMEIEKEKVEYMEKSKHLQEPLNELKTEIEALKLKERETALDILHNENSDRGGSSKHNTIKKPQAQGRRPICI [Q538P] | disrupting interaction strength
3 | MAGAIASRMSFSSLKRKQPKTFTVRIVTMDAEMEFNCEMKWKGKDLFDLVCRTLGLRETWFFGLQYTIKDTVAWLKMDKKVLDHDVSKEEPVTFHFLAKFYPENAEEELVQEITQHLFFLQVKKQILDEKIYCPPEASVLLASYAVQAKYGDYDPSVHKRGFLAQEELLPKRVINLYQMTPEMWEERITAWYAEHRGRARDEAEMEYLKIAQDLEMYGVNYFAIRNKKGTELLLGVDALGLHIYDPENRLTPKISFPWNEIRNISYSDKEFTIKPLDKKIDVFKFNSSKLRVNKLILQLCIGNHDLFMRRRKADSLEVQQMKAQAREEKARKQMERQRLAREKQMREEAERTRDELERRLLQMKEEATMANEALMRSEETADLLAEKAQITEEEAKLLAQKAAEAEQEMQRIKATAIRTEEEKRLMEQKVLEAEVLALKMAEESERRAKEADQLKQDLQEAREAERRAKQKLLEIATKPTYPPMNPIPAPLPPDIPSFNLIGDSLSFDFKDTDMKRLSMEIEKEKVEYMEKSKHPQEQLNELKTEIEALKLKERETALDILHNENSDRGGSSKHNTIKKPQAQGRRPICI [L535P] | decreasing interaction strength
